Where “and” joins values, the source holds several entries; their conditions need not be identical. Equal values may be shown once. Blank lines part the entries; values can stand above or below the binder they belong to.
Columns and labels:
[1] = biological target: T1, human CSPα L115R, purified from E. coli (human), Q9H3Z4; assay: SDS-PAGE of SDS-resistant oligomers; details: remark: other sources report otherwise
T1 chain: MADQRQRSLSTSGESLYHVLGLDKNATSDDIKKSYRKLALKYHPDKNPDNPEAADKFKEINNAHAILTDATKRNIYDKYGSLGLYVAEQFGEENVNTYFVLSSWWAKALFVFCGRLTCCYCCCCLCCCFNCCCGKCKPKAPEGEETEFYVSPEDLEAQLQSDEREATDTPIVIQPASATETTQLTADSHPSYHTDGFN

Q9H3Z4 = assay: SDS-PAGE of SDS-resistant oligomers; details: other: SDS-PAGE of SDS-resistant oligomers

- stoichiometry N [1]: 2 and 4
B1: human CSPα L115R, purified from E. coli, Q9H3Z4 1-198 (natural protein)
chain: T1 chain

B2: human CSPα L115R, purified from E. coli (protein)
chain: T1 chain
- HMW oligomers, fold versus WT (Q9H3Z4): 58.9 ± 5.9 fold versus WT

B3: human CSPα L116Δ, purified from E. coli (protein)
chain: MADQRQRSLSTSGESLYHVLGLDKNATSDDIKKSYRKLALKYHPDKNPDNPEAADKFKEINNAHAILTDATKRNIYDKYGSLGLYVAEQFGEENVNTYFVLSSWWAKALFVFCGLTCCYCCCCLCCCFNCCCGKCKPKAPEGEETEFYVSPEDLEAQLQSDEREATDTPIVIQPASATETTQLTADSHPSYHTDGFN
- HMW oligomers, fold versus WT (Q9H3Z4): 13.2 ± 3.9 fold versus WT
